In patent US20240216513A1, “FATTY ACID-BIFUNCTIONAL DEGRADER CONJUGATES AND THEIR METHODS OF USE” (Novartis AG, priority 2021, published 2024):

Columns and labels:
[1] = In vivo pharmacokinetic study in mice (i.v. or s.c.), FAC and payload in blood; design: species or system mouse; settings: male, C57/B16, mouse, in vivo, sc, 40 umol/kg
[2] = In vivo pharmacokinetic study in rats (i.v. or s.c.), FAC and payload in blood; design: species or system rat; settings: male, Sprague-Dawley, rat, in vivo, sc, 40 umol/kg
Method: (§1) Pharmacokinetic studies were conducted in male C57/B16 mice; male Sprague-Dawley rats; male Beagle dogs and male Cynomolgus monkeys. 3 animals per group were used for each study performed. All studies were performed in accordance with local animal welfare regulations.
[…] Serial 30 µL blood samples were collected via venipuncture of the tail vein in mouse, and via the cannulated jugular vein in rats at defined timepoints to 216 hours (into EDTA coated tubes).
(§2) Each blood sample was precipitated with acetonitrile containing internal standard; samples were mixed and centrifuged (20 minutes 4000 RPM at 4° C.). Supernatant was transferred to a microwell plate and evaporated under nitrogen at 60° C. Residue was resuspended in acetonitrile/water (7:3 v/v); plate sealed and transferred to an ultrasonic bath for 3 minutes, prior to analysis. Quantification was performed by LC-MS/MS (SciexAP16500 Q-trap, Shimadzu Nexera X2) using a Phenomenex Polar RP analytical column (2.5 μm particle size; 50×2 mm). The mobile phase consisted of solvent A (0.1% formic acid in water) and solvent B (0.1% formic acid in acetonitrile). The fatty acid conjugate and API were detected using multiple reaction monitoring.
(§3) Data analysis and calculation of non-compartmental pharmacokinetic parameters was
(§4) performed using an in-house analysis. Following intravenous administration whole blood clearance was calculated by the dose administered divided by AUC0-inf. Volume of distribution at steady state was calculated as MRT*CL, where MRT is the mean residence time, calculated by AUMC0-inf/AUC0-inf. The half-life (t1/2) of the terminal elimination phase was calculated by 0.693/λ. For both intravenous and subcutaneous administration, the systemic exposures were determined by calculating the area under the blood concentration time curve (AUC) from time zero to the last observed quantifiable concentration (AUClast) by using the linear trapezoidal method and normalised to dose. Extrapolated AUC (AUC0-inf) is calculated by addition of AUClast and AUCtlast-inf; where AUCtlast-inf is calculated based on Clast/λ. The slope of the terminal elimination phase was estimated by linear regression of the terminal data points (minimum 3 points) from a natural log concentration versus time plot of the data. Bioavailability was calculated as the dose normalized ratio of […] AUCinf to intravenous AUCinf (100*[SC AUCinf/SC dose]/[IV AUCinf/IV dose]). Following subcutaneous administration Cmax is calculated as the average maximum observed peak concentration and Tmax is the time associated with the determined Cmax.
For PK experiments, non-tumor bearing mice or rats were treated once (10 mL/kg) with a compound either i.v. or s.c. Serial blood samplings from the tail vein (5-20 μl) were collected during the course of the experiment. For PK/PD experiments in tumor-bearing mice, compound was administered once (10 mL/kg) either i.v. or s.c. Animals were randomized into groups of n=3 and tissue samples were collected at several time points. At the times indicated, animals were anaesthetized by exposure to 2-3% v/v isoflurane in medical oxygen. They were sacrificed without recovering from anesthetic after blood sampling into commercially prepared EDTA coated tubes (Milian, cat #TOM-14C) in order to extract plasma. The tissues were excised, weighted and rapidly frozen in liquid nitrogen. Later, tumors were cryogenic dry pulverized with the CryoPrep™ system (model CP-02, Covaris). For efficacy experiments in ectopic tumor-bearing mice, animals were randomized into groups of n=6 for a mean tumor size of 100 mm^3 and compound was administered either i.v. q3w or s.c. q2w. When implanted in brain, animals were randomized into groups of n=4 for a mean bioluminescence of 1.0-2.0E+06 [p/s]/[ρW/cm^2] and compound was administered i.v. qw. Tumor response were reported with the measures of tumor volumes or bioluminescence from the treatment start. […]

[3] = In vivo pharmacokinetic study in Beagle dogs (i.v. or s.c.), FAC and payload in blood; design: species or system dog
[4] = In vivo pharmacokinetic study in Cynomolgus monkeys (i.v. or s.c.), FAC and payload in blood; design: species or system cynomolgus monkey
Method: as §1
Between 1 and 10 µM/kg FAC was administered either intravenously or subcutaneously as a solution in 10 mM PBS with NaOH (dose volume 0.4 mL/kg in dog and monkey s.c. and 0.2 mL/kg i.v. in monkey). Serial 100 µL blood samples were collected via venipuncture of the cephalic vein at defined timepoints to 336 hours (into EDTA coated tubes).
as §2, §3, §4

[5] = molecular target: T1, BTK (Homo sapiens, UniProt Q06187); experiment: PK/PD in TMD8 tumor-bearing mice: BTK levels in tumor by Meso Scale Discovery; type: in vivo, mouse; settings: I.v.; 40 umol/kg
T1 construct: endogenous in cells; host or cells: TMD8 tumour xenografts in SCID/BEIGE mice
T1 sequence (Q06187 whole entry): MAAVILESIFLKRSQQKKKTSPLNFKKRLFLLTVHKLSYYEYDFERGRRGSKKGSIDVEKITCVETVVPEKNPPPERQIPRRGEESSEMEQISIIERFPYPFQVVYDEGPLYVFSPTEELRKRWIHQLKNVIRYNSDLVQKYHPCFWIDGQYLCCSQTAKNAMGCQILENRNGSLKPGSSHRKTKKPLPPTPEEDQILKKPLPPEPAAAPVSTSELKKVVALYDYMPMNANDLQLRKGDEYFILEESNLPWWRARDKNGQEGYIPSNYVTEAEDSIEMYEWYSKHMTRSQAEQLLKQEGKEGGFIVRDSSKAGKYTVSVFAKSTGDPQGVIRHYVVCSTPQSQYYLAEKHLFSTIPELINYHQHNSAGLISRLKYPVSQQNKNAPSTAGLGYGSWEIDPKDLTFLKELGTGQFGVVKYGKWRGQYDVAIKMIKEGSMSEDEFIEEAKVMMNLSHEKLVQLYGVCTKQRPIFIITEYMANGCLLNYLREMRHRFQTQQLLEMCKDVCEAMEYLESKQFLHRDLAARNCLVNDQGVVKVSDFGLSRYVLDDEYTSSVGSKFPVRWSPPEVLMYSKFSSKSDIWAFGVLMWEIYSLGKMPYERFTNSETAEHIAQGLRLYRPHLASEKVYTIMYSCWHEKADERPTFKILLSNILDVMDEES
Method: (§5) All animal experiments were performed according to procedures covered by permit number BS-1974, BS-1975 and BS-2904 issued by the Kantonales Veterinäramt Basel-Stadt and strictly adhered to the Eidgenössisches Tierschutzgesetz and the Eidgenössische Tierschutzverordnung. Female Sprague Dawley rat were obtained from Charles Rivers (Germany), female Balb/c mice from Charles Rivers (Italy) and female SCID/BEIGE (C.B-Igh-1b/GbmsTac-Prkdcscid-Lystbg N7) mice from Taconic. All the animals were housed in a pathogen-controlled environment with access to food and water ad libitum and they were identified with transponders.
(§6) Subcutaneous TMD8 tumors were induced by injecting tumor cells expanded in vitro in the right flank of SCID/BEIGE mice. As soon as the injection was finished, antagonization (naloxone, flumazenil and atipamezole injected s.c.) was injected and mice are put on a warming pad for recovery and carefully checked during that time.
(§7) For PK experiments, non-tumor bearing mice or rats were treated once (10 mL/kg) with a compound either i.v. or s.c. Serial blood samplings from the tail vein (5-20 μl) were collected during the course of the experiment. For PK/PD experiments in tumor-bearing mice, compound was administered once (10 mL/kg) either i.v. or s.c. Animals were randomized into groups of n=3 and tissue samples were collected at several time points. At the times indicated, animals were anaesthetized by exposure to 2-3% v/v isoflurane in medical oxygen. They were sacrificed without recovering from anesthetic after blood sampling into commercially prepared EDTA coated tubes (Milian, cat #TOM-14C) in order to extract plasma. The tissues were excised, weighted and rapidly frozen in liquid nitrogen. Later, tumors were cryogenic dry pulverized with the CryoPrep™ system (model CP-02, Covaris). For efficacy experiments in ectopic tumor-bearing mice, animals were randomized into groups of n=6 for a mean tumor size of 100 mm^3 and compound was administered either i.v. q3w or s.c. q2w. When implanted in brain, animals were randomized into groups of n=4 for a mean bioluminescence of 1.0-2.0E+06 [p/s]/[ρW/cm^2] and compound was administered i.v. qw. Tumor response were reported with the measures of tumor volumes or bioluminescence from the treatment start. Concentrations of compound in blood and tissues were determined simultaneously by UPLC/MS-MS. BTK and IL-10 levels in tumor were determined by Meso Scale Discovery (MSD).

[6] = test system: TMD8 tumors; experiment: Efficacy in ectopic (subcutaneous) TMD8 tumor-bearing SCID/BEIGE mice, tumor volume; type: in vivo, mouse; settings: I.v.
Method: as §5, §6, §7

## CCCCCCCCCCCC(CCCCCCCCCCC(=O)O)(C(=O)O)C(=O)NCCOCCOCCOCCOCCOCCOCCOCCOCCOCCOCCOCCOCCC(=O)NCC(=O)OC(C)(C)c1ccc(C(=O)Nc2cc(F)cc(-c3ncnc4[nH]c(-c5ccc(CN6CCC(OC7CCN(CCn8cccc(CN9CCC(=O)NC9=O)c8=O)CC7)CC6)cc5)cc34)c2C)c(F)c1 (stereo not shown) [Compound B1, 2-((44-(4-((3-(6-(4-((4-((1-(2-(3-((2,4-Dioxotetrahydropyrimidin-1(2H)-yl)methyl)-2-oxopyridin-1(2H)-yl)ethyl)piperidin-4-yl)oxy)piperidin-1-yl)methyl)phenyl)-7H-pyrrolo[2,3-d]pyrimidin-4-yl)-5-fluoro-2-methylphenyl)carbamoyl)-3-fluorophenyl)-44-methyl-39,42-dioxo-3,6,9,12,15,18,21,24,27,30,33,36,43-tridecaoxa-40-azapentatetracontyl)carbamoyl)-2-undecyltridecanedioic acid]
[1]
  AUC: 3860 µM·h
  Cmax: 71 µM
[2]
  Cmax: 11 µM
[2]; Lipophilic Acid Conjugate AUC
  AUC: 667 µM·h
[3]; analyte conjugate, d.n., Conj. i.v. dose 10 umol/kg
  Fatty Acid Conjugate C0-uM d.n. Dog: 3.3 µM
[3]; male, Beagle, whole blood, sc, Dog, Conj. s.c. dose 10 umol/kg, read-out: Lipophilic Acid Conjugate AUC
  AUC: 304 µM·h
[3]; male, Beagle, whole blood, sc, Dog, Conj. s.c. dose 10 umol/kg, read-out: Lipophilic Acid Conjugate Cmax
  Cmax: 37.5 µM
[4]; analyte conjugate, d.n., Conj. i.v. dose 1 umol/kg
  Fatty Acid Conjugate C0-uM d.n. Cyno: 9.9 µM
[4]; male, cynomolgus monkey, whole blood, sc, Cyno, Conj. s.c. dose 1 umol/kg, read-out: Lipophilic Acid Conjugate AUC
  AUC: 26.1 µM·h
[4]; male, cynomolgus monkey, whole blood, sc, Cyno, Conj. s.c. dose 1 umol/kg, read-out: Lipophilic Acid Conjugate Cmax
  Cmax: 3.8 µM
[5]
  Duration of BTK degradation in mouse ≥90%: 10 days
[6]
  Dosing to achieve sustained ~90% regression: 40 umol/kg q3w

## CCCCCCCCCCC[C@](CCCCCCCCCCC(=O)O)(C(=O)O)C(=O)NCCOCCOCCOCCOCCOCCOCCOCCOCCOCCOCCOCCOCCC(=O)NCC(=O)OC(C)(C)c1ccc(C(=O)Nc2cc(F)cc(-c3ncnc4[nH]c(-c5ccc(CN6CCC(OC7CCN(CCn8cccc(CN9CCC(=O)NC9=O)c8=O)CC7)CC6)cc5)cc34)c2C)c(F)c1 (single isomer, unassigned) [Compound B3]
[1]
  AUC: 3850 µM·h
  Cmax: 68 µM
[5]
  Duration of BTK degradation in mouse ≥90%: 14 days
[6]
  Dosing to achieve sustained ~90% regression: 20 umol/kg q3w
